From paper PMC8012256

Target: cross-linked CA A14C/E45C/W184A/M185A hexamer (HIV-1)
Assay: crystal structure

Sec24C(228–242) peptide (from UniProt P53992-1 228-242)
stoichiometry N (Sec24C(228–242) molecules per CA hexamer): 6

cross-linked CA A14C/E45C/W184A/M185A hexamer (complex)
stoichiometry N: 6
